Data taken from the RNAGym collection of RNA variant scans (doi:10.7554/elife.80360).

B1: HDV Ribozyme (parent)
chain: GGCCGGCAUGGUCCCAGCCUCCUCGCUGGCGCCGGCUGGGCAACAUUCCGAGGGGACCGUCCCCUCGGUAAUGGCGAAUGGGACCCA

Variants of: B1
Assay: self-cleavage, relative activity (ratio to wild type); higher = more cleavage; co-transcriptional

Variant | self-cleavage
GGCCGGCAUGGUCCCAGCCUCCUCGCUGGCGUCGGCUGGGCAACAUUCCGAGGGGACCGGCCCCUCGGUAAUGGCGAAUGGGACCCA | 1.02
GGCCGGCAUGGUCCCAGCCUCCUCGCUGGCGUCGGCUGGGCGACAUUCCGAGGGGACCGUCCCCUCGGUAAUGGCGAAUGGGACCCA | 0.244
GGCCGGCAUGGUCCCAGCCUCCUCGCUGGCGUCGGCUGGGCUACAUUCCGAGGGGACCGUCCCCUCGGUAAUGGCGAAUGGGACCCA | 0.591
GGCCGGCAUGGUCCCAGCCUCCUCGCUGGCGGCGGCUGGGCAACAUUCCGAGAGGACCGUCCCCUCGGUAAUGGCGAAUGGGACCCA | 0.205
GGCCGGCAUGGUCCCAGCCUCCUCGCUGGCGUCGGCUGGGCAACAUUCCGAGGGGACCGUCCCCUCGGUAACGGCGAAUGGGACCCA | 0.532
GGCCGGCAUGGUCCCAGCCUCCUCGCUGGCGUCGGCUGGGCAACAUUCCGAGGGGACCGUCCCCUCGGUAAUGGAGAAUGGGACCCA | 0.0692
GGCCGGCAUGGUCCCAGCCUCCUCGCUGGCGGCGGCUGGGCAACAUUCCGAGGGGACCGCCCCCUCGGUAAUGGCGAAUGGGACCCA | 0.0723
GGCCGGCAUGGUCCCAGCCUCCUCGCUGGCGGCGGCUGGGCAACAUUCCGAGGGGACCGUCCCCUCGGUAAAGGCGAAUGGGACCCA | 0.0489
GGCCGGCAUGGUCCCAGCCUCCUCGCUGGCGGCGGCUGGGCAACAUUCCGAGGGGACCGUCCCCUCGGUAACGGCGAAUGGGACCCA | 0.104
GGCCGGCAUGGUCCCAGCCUCCUCGCUGGCGGCGGCUGGGCAACAUUCCGAGGGGACCGUCCCCCCGGUAAUGGCGAAUGGGACCCA | 0.135
GGCCGGCAUGGUCCCAGCCUCCUCGCUGGCGGCGGCUGGGCAACAUUCCGAGGGGACCGUCCCCUCGCUAAUGGCGAAUGGGACCCA | 0
GGCCGGCAUGGUCCCAGCCUCCUCGCUGGCGUCGGCUGGGCAACAUUCCGAGGGGACCGUCCCCUCGGUAAUGGCGUAUGGGACCCA | 0.496
GGCCGGCAUGGUCCCAGCCUCCUCGCUGGCGGCGGCUGGGCAACAUUCCGAGGGGACCCUCCCCUCGGUAAUGGCGAAUGGGACCCA | 0.0923
GGCCGGCAUGGUCCCAGCCUCCUCGCUGGCGUCGGCUGGGCAACAUUCCGAGGGGACCCUCCCCUCGGUAAUGGCGAAUGGGACCCA | 0.734
GGCCGGCAUGGUCCCAGCCUCCUCGCUGGCGUCGGCUGGGCAACAUUCCGAGGGGACCGUCCCCUCGGUAAUGGCGAAUGGGACCCA | 0.881
GGCCGGCAUGGUCCCAGCCUCCUCGCUGGCGUCGGCUGGGCAACAUUCCGAGGGGUCCGUCCCCUCGGUAAUGGCGAAUGGGACCCA | 0.76
GGCCGGCAUGGUCCCAGCCUCCUCGCUGGCGUCGGCUGGGCAACAUUCCGAGGGGACCGUCCCCUCGGGAAUGGCGAAUGGGACCCA | 0.852
GGCCGGCAUGGUCCCAGCCUCCUCGCUGGCGUCGGCUCGGCAACAUUCCGAGGGGACCGUCCCCUCGGUAAUGGCGAAUGGGACCCA | 0.233
GGCCGGCAUGGUCCCAGCCUCCUCGCUGGCGGCGGCUGGGCAACAUUCCGAGGGGACCGUCCCCUCGGUAAUGGCGAAUGGGAUCCA | 0.0354
GGCCGGCAUGGUCCCAGCCUCCUCGCUGGCGGCGGCUGGGCAACAUUCCGAGGGGACCGUCCCCUCGGUAAUGGCGAAUGGGAACCA | 0.0386
GGCCGGCAUGGUCCCAGCCUCCUCGCUGGCGUCGGCUGGCCAACAUUCCGAGGGGACCGUCCCCUCGGUAAUGGCGAAUGGGACCCA | 0.104
GGCCGGCAUGGUCCCAGCCUCCUCGCUGGCGUCGGCUGGGCAACAUUCCGAGGGGACCGUCCCCUCGGUAAUGGCGAAUGGGACCGA | 0.739

Variant | self-cleavage
GGCCGGCAUGGUCCCAGCCUCCUCGCUGGCGUCGGCUGGGCAACAUUCCGAGGGGACCGUCCCCUCCGUAAUGGCGAAUGGGACCCA | 0.997
GGCCGGCAUGGUCCCAGCCUCCUCGCUGGCGGCGGCUGGGCAACAUUCCUAGGGGACCGUCCCCUCGGUAAUGGCGAAUGGGACCCA | 0.0268
GGCCGGCAUGGUCCCAGCCUCCUCGCUGGCGGCGGCUGGGCAACAUUCCGAAGGGACCGUCCCCUCGGUAAUGGCGAAUGGGACCCA | 0.254
GGCCGGCAUGGUCCCAGCCUCCUCGCUGGCGGCGGCUGGGCAACAUUCCGAUGGGACCGUCCCCUCGGUAAUGGCGAAUGGGACCCA | 0.198
GGCCGGCAUGGUCCCAGCCUCCUCGCUGGCGUCGGCUGGGCAACAUUCCGAGGGGACCGUCCCCUCGGUAAUGGCGAGUGGGACCCA | 0.525
GGCCGGCAUGGUCCCAGCCUCCUCGCUGGCGGCGGCUGGGCAACAUUCCGAGGGGACCGUCCCCUCGGUAAUGGCGAAUGGCACCCA | 0.0652
GGCCGGCAUGGUCCCAGCCUCCUCGCUGGCGUCGGCUGGGCAACAUUCCGUGGGGACCGUCCCCUCGGUAAUGGCGAAUGGGACCCA | 0.884
GGCCGGCAUGGUCCCAGCCUCCUCGCUGGCGUCGGCUGGGCAACAUUCCGAGGGGACCGUCCCCUCGGUAAUGGCAAAUGGGACCCA | 0.946
GGCCGGCAUGGUCCCAGCCUCCUCGCUGGCGUCGGCUGGGCAACAUUCCGAGGGGACCGUCCCCUCGGUAAUGGCCAAUGGGACCCA | 0.854
GGCCGGCAUGGUCCCAGCCUCCUCGCUGGCGUCGGCUGGGCAACAUUCCGAGGGGACCGUCCCCUCGGUAAUGGCUAAUGGGACCCA | 0.751
GGCCGGCAUGGUCCCAGCCUCCUCGCUGGCGUCGGCUGGGCAAUAUUCCGAGGGGACCGUCCCCUCGGUAAUGGCGAAUGGGACCCA | 0.564
GGCCGGCAUGGUCCCAGCCUCCUCGCUGGCGUCGGCUGGGCAACAUUCGGAGGGGACCGUCCCCUCGGUAAUGGCGAAUGGGACCCA | 0.743
GGCCGGCAUGGUCCCAGCCUCCUCGCUGGCGUCGGCUGGGCAACAUGCCGAGGGGACCGUCCCCUCGGUAAUGGCGAAUGGGACCCA | 1.03
GGCCGGCAUGGUCCCAGCCUCCUCGCUGGCGUCGGCUGGGCAACAUACCGAGGGGACCGUCCCCUCGGUAAUGGCGAAUGGGACCCA | 0.943
GGCCGGCAUGGUCCCAGCCUCCUCGCUGGCGUCGUCUGGGCAACAUUCCGAGGGGACCGUCCCCUCGGUAAUGGCGAAUGGGACCCA | 0.376
GGCCGGCAUGGUCCCAGCCUCCUCGCUGGCGUCGGCUGCGCAACAUUCCGAGGGGACCGUCCCCUCGGUAAUGGCGAAUGGGACCCA | 0.122
GGCCGGCAUGGUCCCAGCCUCCUCGCUGGCGUCGGCGGGGCAACAUUCCGAGGGGACCGUCCCCUCGGUAAUGGCGAAUGGGACCCA | 0.166
GGCCGGCAUGGUCCCAGCCUCCUCGCUGGCGUCGGCCGGGCAACAUUCCGAGGGGACCGUCCCCUCGGUAAUGGCGAAUGGGACCCA | 1.29
GGCCGGCAUGGUCCCAGCCUCCUCGCUGGCGUCGGCUGGGCAACAUUCCGAGGGGACCGUCCCAUCGGUAAUGGCGAAUGGGACCCA | 0.831
GGCCGGCAUGGUCCCAGCCUCCUCGCUGGCGUCGGCUGGGCAACAUUCCGAGGGGACCGUCCCCUCGGUAAUGUCGAAUGGGACCCA | 0.176
GGCCGGCAUGGUCCCAGCCUCCUCGCUGGCGGCGGCUGGGCAACAUUCCGAGGGGACCGUCCCCUCGGUAAUGGCGAAUGGGACGCA | 0.111
GGCCGGCAUGGUCCCAGCCUCCUCGCUGGCGGCGGCUGGGCAACAUUCCGAGGGGACCGUCCCCUCGGUAAUGGCGAAUGGGACUCA | 0.0692

Variant | self-cleavage
GGCCGGCAUGGUCCCAGCCUCCUCGCUGGCGGCGGCUGGGCAACAUUCCGAGGGGACCGUCCCCUCGGUAAUGGCGAAUGGGACACA | 0.0378
GGCCGGCAUGGUCCCAGCCUCCUCGCUGGCGGCGGCGGGGCAACAUUCCGAGGGGACCGUCCCCUCGGUAAUGGCGAAUGGGACCCA | 0.0554
GGCCGGCAUGGUCCCAGCCUCCUCGCUGGCGGCGGCUGGGCAACAUGCCGAGGGGACCGUCCCCUCGGUAAUGGCGAAUGGGACCCA | 0.0594
GGCCGGCAUGGUCCCAGCCUCCUCGCUGGCGUCGGCUGGGCAACAUUCCGAGGGGACCGUCCCCUCGGUAAUGGCGAAUGGGACCCC | 0.795
GGCCGGCAUGGUCCCAGCCUCCUCGCUGGCGGCGGCUGGGCAACAUUCCGAGGGGACCGUCCCCUCGGUAAUGGCAAAUGGGACCCA | 0.271
GGCCGGCAUGGUCCCAGCCUCCUCGCUGGCGUCGGCUGGGAAACAUUCCGAGGGGACCGUCCCCUCGGUAAUGGCGAAUGGGACCCA | 0.591
GGCCGGCAUGGUCCCAGCCUCCUCGCUGGCGGCCGCUGGGCAACAUUCCGAGGGGACCGUCCCCUCGGUAAUGGCGAAUGGGACCCA | 0.0475
GGCCGGCAUGGUCCCAGCCUCCUCGCUGGCGUCGGCUGGGCAACAUUCCGAGGGGACGGUCCCCUCGGUAAUGGCGAAUGGGACCCA | 0.646
GGCCGGCAUGGUCCCAGCCUCCUCGCUGGCGGCGGCUGGGCAACAGUCCGAGGGGACCGUCCCCUCGGUAAUGGCGAAUGGGACCCA | 0
GGCCGGCAUGGUCCCAGCCUCCUCGCUGGCGGCGGCUGGGCAACAUUCCGAGGGGACCGUCCCCUCGGUAAUUGCGAAUGGGACCCA | 0.0692
GGCCGGCAUGGUCCCAGCCUCCUCGCUGGCGGCGGCUGGGCAACAUUCCGAGGGGACCGUCCCCUCGGUAAUAGCGAAUGGGACCCA | 0.0615
GGCCGGCAUGGUCCCAGCCUCCUCGCUGGCGGCGGCUGGGCAACAUUCCGAGGGGACCGUCCCCUCGGUAAUGGCGAAUGGGACCUA | 0.203
GGCCGGCAUGGUCCCAGCCUCCUCGCUGGCGUCGGCUGGGCAACAUUCCGAGGGGACCGUCCGCUCGGUAAUGGCGAAUGGGACCCA | 0.721
GGCCGGCAUGGUCCCAGCCUCCUCGCUGGCGUCGGUUGGGCAACAUUCCGAGGGGACCGUCCCCUCGGUAAUGGCGAAUGGGACCCA | 0.493
GGCCGGCAUGGUCCCAGCCUCCUCGCUGGCGUCGGAUGGGCAACAUUCCGAGGGGACCGUCCCCUCGGUAAUGGCGAAUGGGACCCA | 0.17
GGCCGGCAUGGUCCCAGCCUCCUCGCUGGCGGCGGCUGGUCAACAUUCCGAGGGGACCGUCCCCUCGGUAAUGGCGAAUGGGACCCA | 0.0791
GGCCGGCAUGGUCCCAGCCUCCUCGCUGGCGUCGGCUGGGCAACAUUCCGACGGGACCGUCCCCUCGGUAAUGGCGAAUGGGACCCA | 0.751
GGCCGGCAUGGUCCCAGCCUCCUCGCUGGCGGCGGCUGGGCAACAUUCCGAGGGGACCGUCCCCUCGGUAAUGGCGAAUAGGACCCA | 0.0764
GGCCGGCAUGGUCCCAGCCUCCUCGCUGGCGUCGGCUGGGCAACAUUCCGAGGAGACCGUCCCCUCGGUAAUGGCGAAUGGGACCCA | 0.891
GGCCGGCAUGGUCCCAGCCUCCUCGCUGGCGGCGGCUAGGCAACAUUCCGAGGGGACCGUCCCCUCGGUAAUGGCGAAUGGGACCCA | 0.0831
